Literature values as cited in publication PMC4019842.

Biological target: holo-transferrin (Homo sapiens) (UniProt P02787)
UniProt P02787, sequence (P02787 20-698): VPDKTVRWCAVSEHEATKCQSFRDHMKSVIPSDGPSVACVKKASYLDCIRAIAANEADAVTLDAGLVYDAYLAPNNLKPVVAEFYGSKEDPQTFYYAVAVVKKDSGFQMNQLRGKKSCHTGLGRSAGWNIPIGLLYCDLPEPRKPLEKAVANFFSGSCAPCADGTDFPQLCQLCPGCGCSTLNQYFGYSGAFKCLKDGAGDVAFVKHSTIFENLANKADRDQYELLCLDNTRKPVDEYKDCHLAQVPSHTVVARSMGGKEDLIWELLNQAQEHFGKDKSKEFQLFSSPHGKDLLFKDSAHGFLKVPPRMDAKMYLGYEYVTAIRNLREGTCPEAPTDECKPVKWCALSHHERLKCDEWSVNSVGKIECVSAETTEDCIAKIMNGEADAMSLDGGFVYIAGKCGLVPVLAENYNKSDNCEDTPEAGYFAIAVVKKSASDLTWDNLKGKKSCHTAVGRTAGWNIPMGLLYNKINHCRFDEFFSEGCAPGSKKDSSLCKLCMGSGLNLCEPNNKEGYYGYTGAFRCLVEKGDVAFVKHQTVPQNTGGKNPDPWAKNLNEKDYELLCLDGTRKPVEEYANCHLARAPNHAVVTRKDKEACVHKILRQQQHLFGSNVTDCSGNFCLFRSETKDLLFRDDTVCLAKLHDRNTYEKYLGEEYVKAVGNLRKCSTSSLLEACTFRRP

Kd: 30 nM
Substance: TFR2 (from UniProt Q9UP52)
